The target in the assay is T1, P3028 (VFDEFKPLVEEPQNLIK, SEQ ID NO: 185), His-tagged (human).
T1 construct: Synthetic fragment of human serum albumin (positions 397-413); used in solution as His-tagged peptide PGE73; also called PGE73; not shown: His-tag
T1 peptide: VFDEFKPLVEEPQNLIK
Kind of assay: PEPSCAN ELISA; peptide on chip, His-P3028 added. (In general: An ELISA detects its analyte on a solid surface through an enzyme-linked reagent.)
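Further: peroxidase color development with ABTS and H2O2 substrate, OD405 imaged by CCD camera with image processing and taken as raw values.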

For AKLDTFFVKLSLFTER [AKLDTFFVKLSLFTER (SEQ ID NO: 268)], the “RAMPO Score” value amounted to 466 rampo units.
On to KKLDHFFVKLSLFTER [KKLDHFFVKLSLFTER (SEQ ID NO: 420)], for which the “RAMPO Score” value is 391 rampo units.
KHLDTFFVKLSLFTER [KHLDTFFVKLSLFTER (SEQ ID NO: 418)]: the “RAMPO Score” value came out at 394 rampo units.
Consider KKLCTFFVKLSLFTER [KKLCTFFVKLSLFTER (SEQ ID NO: 449)], for which the “RAMPO Score” value was 344 rampo units.
Next, KKLDQFFVKLSLFTER [KKLDQFFVKLSLFTER (SEQ ID NO: 308)]: 535 rampo units; KDLDTFFVKLSLFTER [KDLDTFFVKLSLFTER (SEQ ID NO: 461)]: 335 rampo units.
On to KGLDTFFVKLSLFTER [KGLDTFFVKLSLFTER (SEQ ID NO: 412)], for which the “RAMPO Score” value stood at 405 rampo units.
For KFLDTFFVKLSLFTER [KFLDTFFVKLSLFTER (SEQ ID NO: 421)], the “RAMPO Score” value came out at 390 rampo units.
Take KKLDTFCVKLSLFTER [KKLDTFCVKLSLFTER (SEQ ID NO: 409)]: the “RAMPO Score” value was determined as 411 rampo units.
With KKLDTFDVKLSLFTER [KKLDTFDVKLSLFTER (SEQ ID NO: 492)], the “RAMPO Score” value came out at 301 rampo units.
As to KILDTFFVKLSLFTER [KILDTFFVKLSLFTER (SEQ ID NO: 467)], the “RAMPO Score” value amounted to 331 rampo units.
As to KKADTFFVKLSLFTER [KKADTFFVKLSLFTER (SEQ ID NO: 282)], the “RAMPO Score” value amounted to 427 rampo units.
As to KKLDFFFVKLSLFTER [KKLDFFFVKLSLFTER (SEQ ID NO: 504)], the “RAMPO Score” value worked out at 290 rampo units.
Next, KKLDTAFVKLSLFTER [KKLDTAFVKLSLFTER (SEQ ID NO: 313)]: 575 rampo units; KKLDSFFVKLSLFTER [KKLDSFFVKLSLFTER (SEQ ID NO: 310)]: 458 rampo units.
Next, KKFDTFFVKLSLFTER [KKFDTFFVKLSLFTER (SEQ ID NO: 286)]: 393 rampo units; KKLDPFFVKLSLFTER [KKLDPFFVKLSLFTER (SEQ ID NO: 307)]: 427 rampo units.
Regarding GKLDTFFVKLSLFTER [GKLDTFFVKLSLFTER (SEQ ID NO: 271)], the “RAMPO Score” value is 367 rampo units.
As for KKLDEFFVKLSLFTER [KKLDEFFVKLSLFTER (SEQ ID NO: 456)], the figure is 341 rampo units.
In the case of KKLDIFFVKLSLFTER [KKLDIFFVKLSLFTER (SEQ ID NO: 501)], the “RAMPO Score” value worked out at 293 rampo units.
As for DKLDTFFVKLSLFTER [DKLDTFFVKLSLFTER (SEQ ID NO: 269)], the figure is 373 rampo units.
As for KKDDTFFVKLSLFTER [KKDDTFFVKLSLFTER (SEQ ID NO: 284)], the figure is 492 rampo units; as for KKLDRFFVKLSLFTER [KKLDRFFVKLSLFTER (SEQ ID NO: 309)], 430 rampo units.
Next, KKCDTFFVKLSLFTER [KKCDTFFVKLSLFTER (SEQ ID NO: 283)]: 432 rampo units; KKGDTFFVKLSLFTER [KKGDTFFVKLSLFTER (SEQ ID NO: 287)]: 563 rampo units.
With KKLATFFVKLSLFTER [KKLATFFVKLSLFTER (SEQ ID NO: 298)], the “RAMPO Score” value stood at 494 rampo units.
Turning to IKLDTFFVKLSLFTER [IKLDTFFVKLSLFTER (SEQ ID NO: 273)], the “RAMPO Score” value is 483 rampo units.
For KKLDLFFVKLSLFTER [KKLDLFFVKLSLFTER (SEQ ID NO: 484)], the “RAMPO Score” value worked out at 311 rampo units.
As for KKLDNFFVKLSLFTER [KKLDNFFVKLSLFTER (SEQ ID NO: 306)], the figure is 436 rampo units.
As for KKLDDFFVKLSLFTER [KKLDDFFVKLSLFTER (SEQ ID NO: 500)], the “RAMPO Score” value worked out at 295 rampo units.
Next, KKLDGFFVKLSLFTER [KKLDGFFVKLSLFTER (SEQ ID NO: 95)]: 386 rampo units; KKLDTCFVKLSLFTER [KKLDTCFVKLSLFTER (SEQ ID NO: 462)]: 335 rampo units.
For the molecule KALDTFFVKLSLFTER [KALDTFFVKLSLFTER (SEQ ID NO: 485)], the “RAMPO Score” value was 309 rampo units.
As for KKLDMFFVKLSLFTER [KKLDMFFVKLSLFTER (SEQ ID NO: 305)], the “RAMPO Score” value was found to be 475 rampo units.
Turning to KKLDKFFVKLSLFTER [KKLDKFFVKLSLFTER (SEQ ID NO: 530)], the “RAMPO Score” value was 237 rampo units.
On to KKIDTFFVKLSLFTER [KKIDTFFVKLSLFTER (SEQ ID NO: 289)], for which the “RAMPO Score” value was determined as 454 rampo units.
Turning to HKLDTFFVKLSLFTER [HKLDTFFVKLSLFTER (SEQ ID NO: 272)], the “RAMPO Score” value was 428 rampo units.
As for FKLDTFFVKLSLFTER [FKLDTFFVKLSLFTER (SEQ ID NO: 465)], the figure is 332 rampo units; as for KKLDCFFVKLSLFTER [KKLDCFFVKLSLFTER (SEQ ID NO: 304)], 449 rampo units; as for KELDTFFVKLSLFTER [KELDTFFVKLSLFTER (SEQ ID NO: 441)], 349 rampo units.
Next, EKLDTFFVKLSLFTER [EKLDTFFVKLSLFTER (SEQ ID NO: 270)]: 396 rampo units.
Take KKHDTFFVKLSLFTER [KKHDTFFVKLSLFTER (SEQ ID NO: 288)]: the “RAMPO Score” value came out at 477 rampo units.
As for KKLDAFFVKLSLFTER [KKLDAFFVKLSLFTER (SEQ ID NO: 447)], the figure is 346 rampo units; as for KCLDTFFVKLSLFTER [KCLDTFFVKLSLFTER (SEQ ID NO: 499)], 295 rampo units; as for KKKDTFFVKLSLFTER [KKKDTFFVKLSLFTER (SEQ ID NO: 290)], 386 rampo units.
Next, KKEDTFFVKLSLFTER [KKEDTFFVKLSLFTER (SEQ ID NO: 285)]: 528 rampo units; KKLDTFAVKLSLFTER [KKLDTFAVKLSLFTER (SEQ ID NO: 404)]: 426 rampo units.

For the origin of these results see US20180177842A1 (CANIMGUIDE THERAPEUTICS, published 2018).
